Paper PMC12363408
“And” between values parts separate entries of the source, which are not always exact repeats. Equal entries are not always repeated.

How the values were obtained:
[1] = target: amyloid precursor protein C99 (UniProt P05067); experiment: SDS-PAGE with Western blot (SDS-stable oligomers); whole-cell expression samples of E. coli (0.8 OD600, autoinduction or IPTG), heated 4 min at 90°C in SDS dye, 4-20% gel, detected with antibody 6E10
[2] = target: amyloid precursor protein C99 (UniProt P05067); experiment: SDS-PAGE with Western blot (SDS-stable oligomers); SEC fractions of Ni-purified C99 in E. coli lipid pentyl-inulin nanodiscs (detergent-free), heated in SDS dye, 4-20% gel, detected with antibody 6E10

amyloid precursor protein C99 (from UniProt P05067 672-770) (domain or fragment)
stoichiometry N [1]: 2 and 3
stoichiometry N [2]: 3
